The series in a line: sequential release of drugs from core-shell nano-disordered electrospun fiber structure. It is filed as physicochemical. Particulars: composite electrospun layer of Example 1; roxithromycin in shell layer fiber, human epidermal growth factor in core layer fiber. The text has this: Moreover, the transmission electron microscopic image of the core-shell nano-disordered electrospun fiber structure in the composite electrospun layer prepared in Example 1 is shown in FIG. 3. […] The coaxial electrospinning realizes the sequential and timed release of the two drugs in the same electrospun layer. Further, the electrospun layer can be prepared by triaxial electrospinning or multiaxial electrospinning process, which has a core-shell structure of three core layers or multi-core layers, thereby achieving the sequential and timed release of three or more drugs in the same electrospun layer.

The values that follow come from patent publication US20250134683A1, “MICRO-NANO MEDICAL STENT FOR DIRECTIONAL, QUANTITATIVE AND TIMED RELEASE OF DRUG AND PREPARATION METHOD THEREOF” (GUANGDONG UNIVERSITY OF TECHNOLOGY, priority 2023, published 2025).

B1: human epidermal growth factor: growth factor gel loaded in PVA core layer fiber (protein, UniProt P01133 23-1207, looked up)
Pro-epidermal growth factor: PQHWSCPEGTLAGNGNSTCVGPAPFLIFSHGNSIFRIDTEGTNYEQLVVDAGVSVIMDFHYNEKRIYWVDLERQLLQRVFLNGSRQERVCNIEKNVSGMAINWINEEVIWSNQQEGIITVTDMKGNNSHILLSALKYPANVAVDPVERFIFWSSEVAGSLYRADLDGVGVKALLETSEKITAVSLDVLDKRLFWIQYNREGSNSLICSCDYDGGSVHISKHPTQHNLFAMSLFGDRIFYSTWKMKTIWIANKHTGKDMVRINLHSSFVPLGELKVVHPLAQPKAEDDTWEPEQKLCKLRKGNCSSTVCGQDLQSHLCMCAEGYALSRDRKYCEDVNECAFWNHGCTLGCKNTPGSYYCTCPVGFVLLPDGKRCHQLVSCPRNVSECSHDCVLTSEGPLCFCPEGSVLERDGKTCSGCSSPDNGGCSQLCVPLSPVSWECDCFPGYDLQLDEKSCAASGPQPFLLFANSQDIRHMHFDGTDYGTLLSQQMGMVYALDHDPVENKIYFAHTALKWIERANMDGSQRERLIEEGVDVPEGLAVDWIGRRFYWTDRGKSLIGRSDLNGKRSKIITKENISQPRGIAVHPMAKRLFWTDTGINPRIESSSLQGLGRLVIASSDLIWPSGITIDFLTDKLYWCDAKQSVIEMANLDGSKRRRLTQNDVGHPFAVAVFEDYVWFSDWAMPSVMRVNKRTGKDRVRLQGSMLKPSSLVVVHPLAKPGADPCLYQNGGCEHICKKRLGTAWCSCREGFMKASDGKTCLALDGHQLLAGGEVDLKNQVTPLDILSKTRVSEDNITESQHMLVAEIMVSDQDDCAPVGCSMYARCISEGEDATCQCLKGFAGDGKLCSDIDECEMGVPVCPPASSKCINTEGGYVCRCSEGYQGDGIHCLDIDECQLGEHSCGENASCTNTEGGYTCMCAGRLSEPGLICPDSTPPPHLREDDHHYSVRNSDSECPLSHDGYCLHDGVCMYIEALDKYACNCVVGYIGERCQYRDLKWWELRHAGHGQQQKVIVVAVCVVVLVMLLLLSLWGAHYYRTQKLLSKNPKNPYEESSRDVRSRRPADTEDGMSSCPQPWFVVIKEHQDLKNGGQPVAGEDGQAADGSMQPTSWRQEPQLCGMGTEQGCWIPVSSDKGSCPQVMERSFHMPSYGTQTLEGGVEKPHSLLSANPLWQQRALDPPHQMELTQ
modifications: Pro-epidermal growth factor
notes: growth factor gel loaded in PVA core layer fiber
As for B1, the “order of drug release from core-shell fiber” value was “subsequently released”.
